Data as given in article PMC11220700, “Activation and Purification of ß‐Glucocerebrosidase by Exploiting its Transporter LIMP‐2 – Implications for Novel Treatment Strategies in Gaucher's and Parkinson's Disease” (Advanced Science, 2024).
*: point of attachment. Biotin = O=C1N[C@H]2[C@H](CS[C@H]2CCCCC(=O)*)N1

T1: untagged human GCase wt (human, UniProt P04062-1 40-536)
T1 construct: human beta-glucocerebrosidase (GCase) wild type, untagged, secreted into the medium; also called wt GCase; beta-glucocerebrosidase; source: HEK 293F, transfected (with sLIMP-2 or alone), in conditioned medium; co-purified with sLIMP-2 (Ni-NTA, SEC)
T1 sequence (looked up): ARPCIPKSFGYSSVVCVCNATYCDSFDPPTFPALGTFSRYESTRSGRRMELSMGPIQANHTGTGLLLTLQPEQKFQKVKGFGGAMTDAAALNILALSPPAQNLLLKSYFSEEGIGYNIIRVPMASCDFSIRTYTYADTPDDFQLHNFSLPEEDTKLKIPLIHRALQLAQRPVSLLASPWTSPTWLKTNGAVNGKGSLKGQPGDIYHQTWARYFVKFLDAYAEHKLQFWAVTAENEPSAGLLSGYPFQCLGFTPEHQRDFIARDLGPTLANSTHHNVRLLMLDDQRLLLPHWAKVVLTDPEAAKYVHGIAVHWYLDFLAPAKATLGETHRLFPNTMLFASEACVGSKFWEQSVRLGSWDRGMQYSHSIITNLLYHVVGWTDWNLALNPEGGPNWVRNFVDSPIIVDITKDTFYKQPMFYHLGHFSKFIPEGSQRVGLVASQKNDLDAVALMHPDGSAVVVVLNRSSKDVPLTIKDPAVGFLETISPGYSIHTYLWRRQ

T2: untagged GCase E326K (human, UniProt P04062-1 40-536, E326K)
T2 construct: human beta-glucocerebrosidase (GCase), disease-associated variant E326K, untagged; printed also as p.Glu365Lys (NM_000157.4); numbers count on: the mature protein; also called E326K GCase; p.E326K; source: HEK 293F, transfected (with sLIMP-2 or alone), in conditioned medium; co-purified with sLIMP-2 (Ni-NTA, SEC)
T2 sequence (looked up): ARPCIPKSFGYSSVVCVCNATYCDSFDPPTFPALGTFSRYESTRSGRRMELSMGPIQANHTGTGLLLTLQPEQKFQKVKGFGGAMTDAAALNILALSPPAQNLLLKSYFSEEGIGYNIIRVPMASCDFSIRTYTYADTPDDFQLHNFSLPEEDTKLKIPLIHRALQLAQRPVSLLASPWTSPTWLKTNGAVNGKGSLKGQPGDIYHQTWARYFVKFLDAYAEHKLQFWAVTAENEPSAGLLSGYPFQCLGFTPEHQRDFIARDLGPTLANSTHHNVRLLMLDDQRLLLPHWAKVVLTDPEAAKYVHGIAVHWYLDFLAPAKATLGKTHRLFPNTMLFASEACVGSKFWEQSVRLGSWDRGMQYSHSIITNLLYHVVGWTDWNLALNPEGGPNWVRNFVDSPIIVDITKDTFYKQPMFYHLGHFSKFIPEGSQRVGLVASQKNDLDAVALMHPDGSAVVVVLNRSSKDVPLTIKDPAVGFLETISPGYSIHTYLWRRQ

T3: untagged GCase N370S (human, UniProt P04062-1 40-536, N370S)
T3 construct: human beta-glucocerebrosidase (GCase), disease-associated variant N370S, untagged; numbers count on: the mature protein; also called N370S GCase; p.N370S; source: HEK 293F, transfected with sLIMP-2, in conditioned medium; co-purified with sLIMP-2 (Ni-NTA, SEC)
T3 sequence (looked up): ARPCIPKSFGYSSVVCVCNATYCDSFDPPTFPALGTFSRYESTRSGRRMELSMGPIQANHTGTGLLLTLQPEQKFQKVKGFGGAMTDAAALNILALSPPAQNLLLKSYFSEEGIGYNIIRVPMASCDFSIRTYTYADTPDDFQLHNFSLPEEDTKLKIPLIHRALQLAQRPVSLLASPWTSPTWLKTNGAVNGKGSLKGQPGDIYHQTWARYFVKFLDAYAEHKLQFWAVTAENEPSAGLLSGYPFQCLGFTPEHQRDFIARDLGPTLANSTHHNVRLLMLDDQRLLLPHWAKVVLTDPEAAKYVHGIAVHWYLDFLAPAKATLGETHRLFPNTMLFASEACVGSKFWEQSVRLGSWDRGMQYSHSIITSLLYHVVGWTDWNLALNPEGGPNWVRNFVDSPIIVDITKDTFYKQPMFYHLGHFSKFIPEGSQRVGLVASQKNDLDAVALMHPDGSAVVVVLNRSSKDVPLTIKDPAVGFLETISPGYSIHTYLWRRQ

T4: His‐tagged GCase wt (10xHis, C‐terminal, TEV‐cleavable) (human, UniProt P04062-1 40-536, red fluorescent dye NT-637 on amines (RED-NHS labelling kit), for MST)
T4 construct: human beta-glucocerebrosidase (GCase) wild type, secreted from cells transfected with pCMV-3-GBA-His; also called GCase-His; source: HEK 293F, transfected, purified from conditioned medium (Ni-NTA); not shown: 10xHis (TEV-cleavable), C-terminal, kept
T4 sequence (looked up): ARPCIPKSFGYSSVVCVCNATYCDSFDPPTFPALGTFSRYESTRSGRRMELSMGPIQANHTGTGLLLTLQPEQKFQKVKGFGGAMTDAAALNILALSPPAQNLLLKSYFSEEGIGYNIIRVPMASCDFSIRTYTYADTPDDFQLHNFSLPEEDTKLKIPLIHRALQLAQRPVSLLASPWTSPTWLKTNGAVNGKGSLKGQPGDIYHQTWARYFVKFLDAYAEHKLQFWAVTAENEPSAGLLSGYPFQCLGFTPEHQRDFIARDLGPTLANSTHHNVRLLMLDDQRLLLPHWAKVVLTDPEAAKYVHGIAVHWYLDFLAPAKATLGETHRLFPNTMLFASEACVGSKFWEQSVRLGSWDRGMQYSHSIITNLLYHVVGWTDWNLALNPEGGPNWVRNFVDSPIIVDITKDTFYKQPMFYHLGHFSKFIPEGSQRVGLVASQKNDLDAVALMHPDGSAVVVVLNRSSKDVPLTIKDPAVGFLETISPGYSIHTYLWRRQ


Assays:
untagged human GCase wt = molecular target: T1, untagged human GCase wt; assay: pull-down; Ni-NTA beads in conditioned medium of HEK 293F cells expressing His-tagged sLIMP-2 with untagged GCase (96 h); overnight at 4 °C; wash with 20 mM imidazole, elution with 400 mM imidazole, pH 8.0; western blot; details: partners not purified
untagged GCase E326K = molecular target: T2, untagged GCase E326K; assay: as above; details: partners not purified
untagged GCase N370S = molecular target: T3, untagged GCase N370S; assay: as above; details: partners not purified
[1] = molecular target: T4, His‐tagged GCase wt (10xHis, …); assay: MST; GCase-His labelled with NT-637, fixed at 25 nM; L2H5-wt titrated in a twofold series of 16 from 125 µM; 50 mM sodium citrate + 0.05% Tween-20, pH 7.4 (cytosolic pH); ambient temperature; the two highest concentrations left out of the Kd fit; details: both partners purified
[2] = molecular target: T4, His‐tagged GCase wt (10xHis, …); assay: MST; GCase-His labelled, L2H5-wt titrated; lysosomal pH (pH 5.0); saturation not reached; details: both partners purified

Row | Binder | binding result (untagged human GCase wt) | binding result (untagged GCase E326K) | binding result (untagged GCase N370S) | Kd [1] [µM] | Kd [2] [µM]
1 | soluble LIMP‐2 (sLIMP‐2), secreted LIMP‐2 ectodomain (domain or fragment, human, UniProt Q14108 36-431, looked up, lysosomal integral membrane protein 2 (LIMP-2), human, luminal domain, amino acids 36-431; also called LIMP-2 shuttle; sLIMP-2-shuttle; source: HEK 293F, transfected, secreted into conditioned medium; purified (Ni-NTA, SEC); not shown: 10xHis (TEV-cleavable), C-terminal, kept) SIEKKIVLRNGTEAFDSWEKPPLPVYTQFYFFNVTNPEEILRGETPRVEEVGPYTYRELRNKANIQFGDNGTTISAVSNKAYVFERDQSVGDPKIDLIRTLNIPVLTVIEWSQVHFLREIIEAMLKAYQQKLFVTHTVDELLWGYKDEILSLIHVFRPDISPYFGLFYEKNGTNDGDYVFLTGEDSYLNFTKIVEWNGKTSLDWWITDKCNMINGTDGDSFHPLITKDEVLYVFPSDFCRSVYITFSDYESVQGLPAFRYKVPAEILANTSDNAGFCIPEGNCLGSGVLNVSICKNGAPIIMSFPHFYQADERFVSAIEGMHPNQEDHETFVDINPLTGIILKAAKRFQINIYVKKLDDFVETGDIRTMVFPVMYLNESVHIDKETASRLKSMINT | binds | binds | binds |  | 
2 | Biotin-KFERQGSGSQVHFLREIIEAMLKAYQSGSGYGRKKRRQRRR-NH2 (also called LIMP-2-derived peptide; LIMP-2-mimicking peptide; source: synthetic peptide (BioCat, >95% purity)) [L2H5‐wt peptide (LIMP‐2‐derived helix 5 peptide)] |  |  |  | 0.153 ± 0.037 | ~98
